3 proteins from patent US20250257148A1 (CROSSLINK THERAPEUTICS, published 2025) can be followed below.

Data set [1] concerns the molecule itself. The experiment in a line: size exclusion chromatography, 1 mM ATP against 1 mM ADP; ATP mediated shift read as homodimerization. The procedure: (§1) To evaluate the behavior of the constructs in the presence of ATP and ADP samples of the purified protein (1 mg each) were buffer-exchanged on PD-10 columns (Cytiva 17085101) according to manufacturer instructions. For the buffer exchange PD-10 desalting columns were equilibrated with target buffer (20 mM Tris-Cl pH 8.0, 50 mM NaCl, 5 mM MgCl₂, 10% glycerol) containing either 1 mM ATP or 1 mM ADP. One milligram (100 μl of 10 mg/ml stock) of protein was added to each column along with 2.4 ml of target buffer, the column was centrifuged at 1000×g for 2 minutes in a 50-ml conical tube, and the eluate was collected. Buffer-exchanged proteins were then concentrated to 0.5 ml (˜60 μM) and loaded onto a Superdex S200 Increase column (Cytiva) equilibrated in the appropriate buffer containing ATP or ADP and eluted at 0.5 ml/min.
(In general: In gel filtration, larger molecules generally elute earlier.)

Data set [2] deals with the molecule itself. The experiment in a line: size exclusion chromatography, 1 mM ATP against 1 mM ADP; homodimerization. On the procedure: as §1

B1: Construct 159: CH1-CH2-TAP1 NBD (Cys-less; modified D-helix; D668N)-(G4S)2-anti-CD3 VHH-(G4S)2-anti-BCMA VHH-Hisx8 (other)
chain: METEFFQQNQTGGGGSGLQTVRSFGGGGGSGGSGLLTPLHLEGLVQFQDVSFAYPNRPDVLVLQGLTFTLRPGEVTALVGPNGSGKSTVAALLQNLYQPTGGQLLLDGKPLPQYEHRYLHRQVAAVGQEPQVFGRSLQENIAYGLTQKPTMEEITAAAVKSGAHSFISGLPQGYDTEVDEAGSQLSGGQRQAVALARALIRKPSVLILDNATSALDAGNQLRVQRLLYESPERYSRSVLLITQHLSLVEQADHILFLEGGAIREGGTHQQLMEKKGSYWAMVQAPADAPEGGGGSGGGGSGGGGSQVQLVESGGGLVQPGGSLRLSCAASGSIFSANTMGWYRQAPGKQRELVAGMNTSGSTVYGDSVKGRFTISRDNAKNIAYLQMNSLIPEDTAVYYCTLVQRGPNYWGQGTQVTVSSGGGGSGGGGSEVQLVESGGGLVQAGGSLRLSCAASGRTFTMGWFRQAPGKEREFVAAISLSPTLAYYAESVKGRFTISRDNAKNTVVLQMNSLKPEDTALYYCAADRKSVMSIRPDYWGQGTQVTVSSHHHHHHHH
notes: Single polypeptide expressed in E. coli
As for B1, in data set [1], the binding result was “binds”.

B2: Construct 157: Hisx8-anti-BCMA VHH-(G4S)2-CH1-CH2-TAP1 NBD (Cys-less; modified D-helix; D668N)-(G4S)2-anti-CD3 VHH (other)
chain: MHHHHHHHHEVQLVESGGGLVQAGGSLRLSCAASGRTFTMGWFRQAPGKEREFVAAISLSPTLAYYAESVKGRFTISRDNAKNTVVLQMNSLKPEDTALYYCAADRKSVMSIRPDYWGQGTQVTVSSGGGGSGGGGSETEFFQQNQTGGGGSGLQTVRSFGGGGGSGGSGLLTPLHLEGLVQFQDVSFAYPNRPDVLVLQGLTFTLRPGEVTALVGPNGSGKSTVAALLQNLYQPTGGQLLLDGKPLPQYEHRYLHRQVAAVGQEPQVFGRSLQENIAYGLTQKPTMEEITAAAVKSGAHSFISGLPQGYDTEVDEAGSQLSGGQRQAVALARALIRKPSVLILDNATSALDAGNQLRVQRLLYESPERYSRSVLLITQHLSLVEQADHILFLEGGAIREGGTHQQLMEKKGSYWAMVQAPADAPEGGGGSGGGGSGGGGSQVQLVESGGGLVQPGGSLRLSCAASGSIFSANTMGWYRQAPGKQRELVAGMNTSGSTVYGDSVKGRFTISRDNAKNIAYLQMNSLIPEDTAVYYCTLVQRGPNYWGQGTQVTVSS
notes: as for B1
As for B2, the binding result in data set [2] was “binds”.

B3: Construct 156: Hisx8-anti-BCMA VHH-(G4S)2-anti-CD3 VHH-(G4S)2-CH1-CH2-TAP1 NBD (Cys-less; modified D-helix; D668N) (other)
chain: MHHHHHHHHEVQLVESGGGLVQAGGSLRLSCAASGRTFTMGWFRQAPGKEREFVAAISLSPTLAYYAESVKGRFTISRDNAKNTVVLQMNSLKPEDTALYYCAADRKSVMSIRPDYWGQGTQVTVSSGGGGSGGGGSQVQLVESGGGLVQPGGSLRLSCAASGSIFSANTMGWYRQAPGKQRELVAGMNTSGSTVYGDSVKGRFTISRDNAKNIAYLQMNSLIPEDTAVYYCTLVQRGPNYWGQGTQVTVSSGGGGSGGGGSETEFFQQNQTGGGGSGLQTVRSFGGGGGSGGSGLLTPLHLEGLVQFQDVSFAYPNRPDVLVLQGLTFTLRPGEVTALVGPNGSGKSTVAALLQNLYQPTGGQLLLDGKPLPQYEHRYLHRQVAAVGQEPQVFGRSLQENIAYGLTQKPTMEEITAAAVKSGAHSFISGLPQGYDTEVDEAGSQLSGGQRQAVALARALIRKPSVLILDNATSALDAGNQLRVQRLLYESPERYSRSVLLITQHLSLVEQADHILFLEGGAIREGGTHQQLMEKKGSYWAMVQAPADAPEGGGGS
notes: Single polypeptide expressed in E. coli; Here CH1-CH2 means Coupling Helix 1 and Coupling Helix 2 (the CAP)
With B3, the binding result in data set [1] is given as “binds”.
